Where a chain is given by its changes, count along the chain named. Names may count otherwise. “And” between values parts separate entries of the source, which are not always exact repeats. Identical values can stand only once.

The results in this text go back to article PMC12088426, “Activity and structure of human (d)CTP deaminase CDADC1” (Proceedings of the National Academy of Sciences of the …, 2025).

The target of one series is T1, CDADC1 (NYD-SP15) (Homo sapiens, UniProt Q9BWV3, E400A).
T1 construct: codon-optimized gene, E. coli BL21-CodonPlus(DE3)-RIL; homotrimer / hexamer (dimer of trimers), hexamer is the active form
T1 sequence (Q9BWV3 1-514 E400A): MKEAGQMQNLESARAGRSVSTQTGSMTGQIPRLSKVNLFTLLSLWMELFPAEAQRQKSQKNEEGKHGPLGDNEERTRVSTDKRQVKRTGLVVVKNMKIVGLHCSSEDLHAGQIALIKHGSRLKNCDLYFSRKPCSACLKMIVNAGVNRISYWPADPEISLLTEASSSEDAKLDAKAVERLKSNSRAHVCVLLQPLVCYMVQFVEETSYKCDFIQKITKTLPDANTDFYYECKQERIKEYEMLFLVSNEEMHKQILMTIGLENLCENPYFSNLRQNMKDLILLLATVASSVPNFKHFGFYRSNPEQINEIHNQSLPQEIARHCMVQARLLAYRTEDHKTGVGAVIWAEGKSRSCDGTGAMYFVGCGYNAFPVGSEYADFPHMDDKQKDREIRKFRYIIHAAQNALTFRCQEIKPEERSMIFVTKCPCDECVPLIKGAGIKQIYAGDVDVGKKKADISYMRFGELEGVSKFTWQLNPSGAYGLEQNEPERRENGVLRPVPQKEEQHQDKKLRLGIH
Kind of series: cryo-EM structure of complex. It counts as binding. The note with it: hexamer, catalytically inactive variant.

Substrate in series [1]: Nc1ccn([C@H]2C[C@H](O)[C@@H](COP(=O)(O)OP(=O)(O)OP(=O)(O)O)O2)c(=O)n1
The series can be described thus: fluorescent ammonia detection, initial velocities, allosteric sigmoidal fit. The series is classed as biochemical, Homo sapiens. The note with it: Low Salt Reaction Buffer; 0.2 uM CDADC1 (monomer); Hill coefficient 1.22.

Substrate in series [2]: Nc1ccn([C@@H]2O[C@H](COP(=O)(O)OP(=O)(O)OP(=O)(O)O)[C@@H](O)[C@H]2O)c(=O)n1
Described as above. The series is classed as biochemical, Homo sapiens. The note with it: Low Salt Reaction Buffer; 0.3 uM CDADC1 (monomer); Hill coefficient 1.6.

Substrate in series [3]: Nc1ccn([C@H]2C[C@H](O)[C@@H](COP(=O)(O)O)O2)c(=O)n1
The series is described as above. The note with it: Low Salt Reaction Buffer; 0.3 uM CDADC1 (monomer); Hill coefficient 1.8. It counts as biochemical, Homo sapiens.

Series [4] concerns the molecule itself. The series can be described thus: mass photometry; Refeyn TwoMP; CDADC1 at ~0.06 uM (monomer), room temperature, 10 min, without a ligand or with 1 mM dCTP (dCTP stabilised against dissociation); hexamers dissociated to trimers and monomers over time; hexamer = dimer of trimers.
Series [5] deals with the molecule itself. The series can be described thus: cryo-EM structure; single-particle cryo-EM of CDADC1 E400A alone, with dCTP and with 5-methyl-dCTP; C3 (trimer) or D3 (dimer of trimers) symmetry imposed; maps 2.4 to 3.0 A.

As for `Cc1cn([C@H]2C[C@H](O)[C@@H](COP(=O)(O)OP(=O)(O)OP(=O)(O)O)O2)c(=O)nc1N` [5mdCTP], the “cryo-EM structure of complex” value on CDADC1 (NYD-SP15) (CTD active site, less clear map than dCTP) was “a hexamer with bound 5mdCTP (PDB: 9HFT)”.
`Nc1ccn([C@H]2C[C@H](O)[C@@H](COP(=O)(O)OP(=O)(O)OP(=O)(O)O)O2)c(=O)n1` [dCTP]: the “cryo-EM structure of complex” value at CDADC1 (NYD-SP15) (one dCTP per protomer in CTD active site, N4 coordinates Zn2+) is reported as “a hexamer with bound dCTP (PDB: 9HFS)”.

B1: CDADC1 (NYD-SP15) (Homo sapiens) (protein)
chain: T1 sequence (Q9BWV3 1-514 E400A) with A400E
notes: codon-optimized gene, E. coli BL21-CodonPlus(DE3)-RIL; homotrimer / hexamer (dimer of trimers), hexamer is the active form
B1: the K0.5 is listed as 0.2 mM in series [1], 0.7 mM in series [2] and 5 mM in series [3]. For the same molecule, the figures for the kcat in series [1], in series [2] and in series [3] were 3.5 s⁻¹, 5.0 s⁻¹ and 8.5 s⁻¹, respectively.

B2: human CDADC1 (enzyme, UniProt Q9BWV3 1-514, looked up)
chain: T1 sequence (Q9BWV3 1-514 E400A) with A400E
notes: CDADC1 (NYD-SP15), human, 514 residues, expressed from a codon-optimized gene; Complete methods are in the SI Appendix; also called NYD-SP15; source: E. coli BL21-CodonPlus (DE3)-RIL, purified (His-trap, Heparin HP, Superdex 200 Increase)
For the molecule B2, the “stoichiometry N” value in series [4] was 3 and 6.

B3: human CDADC1 E400A variant (enzyme, UniProt Q9BWV3 1-514, looked up)
chain: T1 sequence (Q9BWV3 1-514 E400A)
notes: CDADC1 (NYD-SP15), human, 514 residues, catalytic glutamate E400 changed to alanine; expressed from a codon-optimized gene; This variant was used for all cryo-EM datasets; source: E. coli BL21-CodonPlus (DE3)-RIL, purified (His-trap, Heparin HP, Superdex 200 Increase)
As to B3, in series [5], the “stoichiometry N” value is 3 and 6.
